Laboratory results reported in PMC12416549 (2024).
Substitutions are numbered along the chain they refer to. Names and notes keep the numbering of the source. Each block holds one binder with its values, some of them ahead of it.

Biological target: T1, TNFR1 (Homo sapiens, UniProt P19438)
T1 chain: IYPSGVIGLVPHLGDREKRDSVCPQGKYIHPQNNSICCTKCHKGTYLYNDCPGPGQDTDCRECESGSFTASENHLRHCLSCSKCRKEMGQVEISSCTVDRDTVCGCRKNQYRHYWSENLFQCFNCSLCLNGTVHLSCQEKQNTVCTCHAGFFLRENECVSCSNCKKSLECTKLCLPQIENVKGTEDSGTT
Assay: yeast display SC50

- apparent Kd (screen): 0.653 nM
B1: E99L (designed binder)
chain: MTLQELLREEALRRAEAEAFRYALELLAEKFPEQKEYLLDLAEEIESQIRSLSGVDVEDVRKFLDKEWAWVKELLAEHPAELAEVEAARAARLAELRALVEAKVAA

- apparent Kd (screen): 0.956 nM
B2: E10V (designed binder)
chain: B1 chain with E10V, L99E

- apparent Kd (screen): 0.956 nM
B3: R97E (designed binder)
chain: B1 chain with R97E, L99E

- apparent Kd (screen): 0.869 nM
B4: F63G (designed binder)
chain: B1 chain with F63G, L99E

- apparent Kd (screen): 0.446 nM
B5: L27Q (designed binder)
chain: B1 chain with L27Q, L99E

- apparent Kd (screen): 5.31 nM
B6: E67P (designed binder)
chain: B1 chain with E67P, L99E

- apparent Kd (screen): 0.446 nM
B7: A17V (designed binder)
chain: B1 chain with A17V, L99E

- apparent Kd (screen): 1.16 nM
B8: T2G (designed binder)
chain: B1 chain with T2G, L99E

- apparent Kd (screen): 0.539 nM
B9: E36Y (designed binder)
chain: B1 chain with E36Y, L99E

- apparent Kd (screen): 11.4 nM
B10: D40Y (designed binder)
chain: B1 chain with D40Y, L99E

- apparent Kd (screen): 2.48 nM
B11: I49C (designed binder)
chain: B1 chain with I49C, L99E

- apparent Kd (screen): 0.49 nM
B12: E5D (designed binder)
chain: B1 chain with E5D, L99E

- apparent Kd (screen): 0.446 nM
B13: L96V (designed binder)
chain: B1 chain with L96V, L99E

- apparent Kd (screen): 9.41 nM
B14: D40K (designed binder)
chain: B1 chain with D40K, L99E

- apparent Kd (screen): 2.73 nM
B15: F63Q (designed binder)
chain: B1 chain with F63Q, L99E

- apparent Kd (screen): 26.9 nM
B16: D65P (designed binder)
chain: B1 chain with D65P, L99E

- apparent Kd (screen): 0.539 nM
B17: A106P (designed binder)
chain: B1 chain with L99E, A106P

- apparent Kd (screen): 2.48 nM
B18: F63P (designed binder)
chain: B1 chain with F63P, L99E

- apparent Kd (screen): 0.653 nM
B19: A15N (designed binder)
chain: B1 chain with A15N, L99E

- apparent Kd (screen): 0.956 nM
B20: S47Q (designed binder)
chain: B1 chain with S47Q, L99E

- apparent Kd (screen): 1.16 nM
B21: L12S (designed binder)
chain: B1 chain with L12S, L99E

- apparent Kd (screen): 0.653 nM
B22: K30T (designed binder)
chain: B1 chain with K30T, L99E

- apparent Kd (screen): 1.4 nM
B23: R50V (designed binder)
chain: B1 chain with R50V, L99E

- apparent Kd (screen): 6.43 nM
B24: V85D (designed binder)
chain: B1 chain with V85D, L99E

- apparent Kd (screen): 0.539 nM
B25: A90W (designed binder)
chain: B1 chain with A90W, L99E

- apparent Kd (screen): 0.539 nM
B26: K30M (designed binder)
chain: B1 chain with K30M, L99E

- apparent Kd (screen): 0.956 nM
B27: R97S (designed binder)
chain: B1 chain with R97S, L99E

- apparent Kd (screen): 0.718 nM
B28: E95N (designed binder)
chain: B1 chain with E95N, L99E

- apparent Kd (screen): 11.4 nM
B29: A42Y (designed binder)
chain: B1 chain with A42Y, L99E

- apparent Kd (screen): 0.49 nM
B30: E5Q (designed binder)
chain: B1 chain with E5Q, L99E

- apparent Kd (screen): 1.16 nM
B31: L52S (designed binder)
chain: B1 chain with L52S, L99E

- apparent Kd (screen): 0.718 nM
B32: V104P (designed binder)
chain: B1 chain with L99E, V104P

- apparent Kd (screen): 4.83 nM
B33: A28Q (designed binder)
chain: B1 chain with A28Q, L99E

- apparent Kd (screen): 13.8 nM
B34: I45A (designed binder)
chain: B1 chain with I45A, L99E

- apparent Kd (screen): 0.49 nM
B35: L26N (designed binder)
chain: B1 chain with L26N, L99E

- apparent Kd (screen): 20.2 nM
B36: L64K (designed binder)
chain: B1 chain with L64K, L99E

- apparent Kd (screen): 0.49 nM
B37: A87M (designed binder)
chain: B1 chain with A87M, L99E

- apparent Kd (screen): 0.49 nM
B38: A90S (designed binder)
chain: B1 chain with A90S, L99E

- apparent Kd (screen): 0.79 nM
B39: A69M (designed binder)
chain: B1 chain with A69M, L99E

- apparent Kd (screen): 0.956 nM
B40: A11G (designed binder)
chain: B1 chain with A11G, L99E

- apparent Kd (screen): 0.718 nM
B41: E43H (designed binder)
chain: B1 chain with E43H, L99E

- apparent Kd (screen): 0.718 nM
B42: L24M (designed binder)
chain: B1 chain with L24M, L99E

- apparent Kd (screen): 0.593 nM
B43: L12M (designed binder)
chain: B1 chain with L12M, L99E

- apparent Kd (screen): 0.79 nM
B44: R89S (designed binder)
chain: B1 chain with R89S, L99E

- apparent Kd (screen): 2.73 nM
B45: L41I (designed binder)
chain: B1 chain with L41I, L99E

- apparent Kd (screen): 0.49 nM
B46: M1I (designed binder)
chain: B1 chain with M1I, L99E

- apparent Kd (screen): 1.16 nM
B47: E16W (designed binder)
chain: B1 chain with E16W, L99E

- apparent Kd (screen): 0.49 nM
B48: H78M (designed binder)
chain: B1 chain with H78M, L99E

- apparent Kd (screen): 0.49 nM
B49: E101C (designed binder)
chain: B1 chain with L99E, E101C

- apparent Kd (screen): 2.48 nM
B50: L96G (designed binder)
chain: B1 chain with L96G, L99E

- apparent Kd (screen): 0.405 nM
B51: R13H (designed binder)
chain: B1 chain with R13H, L99E

- apparent Kd (screen): 0.593 nM
B52: A90Q (designed binder)
chain: B1 chain with A90Q, L99E

- apparent Kd (screen): 0.593 nM
B53: A15W (designed binder)
chain: B1 chain with A15W, L99E

- apparent Kd (screen): 1.54 nM
B54: L24H (designed binder)
chain: B1 chain with L24H, L99E

- apparent Kd (screen): 0.718 nM
B55: L96M (designed binder)
chain: B1 chain with L96M, L99E

- apparent Kd (screen): 20.2 nM
B56: L3G (designed binder)
chain: B1 chain with L3G, L99E

- apparent Kd (screen): 1.05 nM
B57: K30A (designed binder)
chain: B1 chain with K30A, L99E

- apparent Kd (screen): 1.54 nM
B58: L82S (designed binder)
chain: B1 chain with L82S, L99E

- apparent Kd (screen): 2.48 nM
B59: L41C (designed binder)
chain: B1 chain with L41C, L99E
